Reference: article PMC10082157

Experiments:
[1] = molecular target: human CD19 (human (endogenous in Raji)) (UniProt P15391)
[2] = molecular target: TCR–CD3 complex on T cells (human (endogenous in Jurkat and primary T cells)) (UniProt P07766)
Chain of TCR–CD3 complex on T cells (human (endogenous in Jurkat and primary T cells)) (P07766 whole entry, looked up, one chain of several): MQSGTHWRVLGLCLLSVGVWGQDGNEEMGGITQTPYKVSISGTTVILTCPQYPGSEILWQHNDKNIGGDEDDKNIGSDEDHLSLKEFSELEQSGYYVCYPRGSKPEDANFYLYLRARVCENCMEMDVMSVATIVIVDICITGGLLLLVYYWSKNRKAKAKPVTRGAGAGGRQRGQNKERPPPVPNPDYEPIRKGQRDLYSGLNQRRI

Chain of human CD19 (human (endogenous in Raji)) (P15391 20-556): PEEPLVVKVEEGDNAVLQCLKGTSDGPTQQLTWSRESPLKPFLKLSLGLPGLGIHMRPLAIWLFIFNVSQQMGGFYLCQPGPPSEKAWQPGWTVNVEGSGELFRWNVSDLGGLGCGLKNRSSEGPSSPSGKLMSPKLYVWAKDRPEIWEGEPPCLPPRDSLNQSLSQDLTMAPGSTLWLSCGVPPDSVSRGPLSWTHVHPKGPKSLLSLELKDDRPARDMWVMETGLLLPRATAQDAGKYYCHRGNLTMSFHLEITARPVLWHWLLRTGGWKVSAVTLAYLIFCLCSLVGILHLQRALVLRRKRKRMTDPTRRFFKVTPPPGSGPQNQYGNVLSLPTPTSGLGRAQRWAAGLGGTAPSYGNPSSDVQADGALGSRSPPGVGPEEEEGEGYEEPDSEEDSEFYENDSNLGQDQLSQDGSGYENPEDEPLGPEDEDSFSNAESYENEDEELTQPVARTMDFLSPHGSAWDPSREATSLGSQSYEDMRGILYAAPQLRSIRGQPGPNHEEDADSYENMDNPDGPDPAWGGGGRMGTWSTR

Blinatumomab (CD19xCD3 BiTE) (bispecific antibody)
activation of Jurkat-ZsG NFAT reporter cells (ZsGreen) in droplets with CD19+ Raji cells and 100 ng/ml Blinatumomab; percent activated [1]: 40%
activation of Jurkat-ZsG NFAT reporter cells (ZsGreen) in droplets with CD19+ Raji cells and 100 ng/ml Blinatumomab; percent activated [2]: 40%
